# Laboratory results from US20160031955A1 (INSERM INSTITUT NATIONAL DE LA SANT ET DE LA RECHERCHE M …, published 2016).
# B1: CHCHD3 (other, human, UniProt Q9NX63 2-227, looked up)
# chain: GGTTSTRRVTFEADENENITVVKGIRLSENVIDRMKESSPSGSKSQRYSGAYGASVSDEELKRRVAEELALEQAKKESEDQKRLKQAKELDRERAAANEQLTRAILRERICSEEERAKAKHLARQLEEKDRVLKKQDAFYKEQLARLEERSSEFYRVTTEQYQKAAEEVEAKFKRYESHPVCADLQAKILQCYRENTHQTLKCSALATQYMHCVNHAKQSMLEKGG
# notes: also called a MIA40 family member
# Molecular target: T1, endogenous AIF (apoptosis inducing factor) contained in human cell lysates (human, UniProt O95831 55-613, limits assumed)
# T1 construct: Endogenous protein in cell lysate; also called AIF contained in the lysate of U2OS cells
# T1 sequence (O95831 55-613 limits assumed): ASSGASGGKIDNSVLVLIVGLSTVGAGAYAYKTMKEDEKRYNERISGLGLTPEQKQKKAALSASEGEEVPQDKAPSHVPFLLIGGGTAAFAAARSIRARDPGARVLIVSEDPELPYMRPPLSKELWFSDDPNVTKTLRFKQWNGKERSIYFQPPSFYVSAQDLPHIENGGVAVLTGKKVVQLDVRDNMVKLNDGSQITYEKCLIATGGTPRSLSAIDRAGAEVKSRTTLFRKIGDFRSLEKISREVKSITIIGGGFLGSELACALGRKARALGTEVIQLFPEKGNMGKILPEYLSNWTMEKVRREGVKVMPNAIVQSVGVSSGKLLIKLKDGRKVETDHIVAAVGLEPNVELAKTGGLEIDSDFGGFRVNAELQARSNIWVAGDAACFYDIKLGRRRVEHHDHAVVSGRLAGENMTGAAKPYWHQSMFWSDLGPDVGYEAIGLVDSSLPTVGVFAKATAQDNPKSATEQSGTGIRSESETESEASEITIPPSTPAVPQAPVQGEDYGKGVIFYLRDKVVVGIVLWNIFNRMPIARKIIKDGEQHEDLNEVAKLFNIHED
# Test: co-immunoprecipitation from human cancer cell lysates
binder,measurement,value
B1,binding result,no binding
